Read-outs that look alike come from different tables or passages of the source.
What was measured:
Assay in all cases: BLI
[1] = molecular target: T1, Biotinylated SARS-CoV-2 S1 protein (ACRO, S1N-C82E8) (UniProt P0DTC2 16-685)
[2] = molecular target: T1, Biotinylated SARS-CoV-2 S1 protein …; remark: listed apart in the source
[3] = molecular target: T1, Biotinylated SARS-CoV-2 S1 protein …; remark: listed apart in the source
[4] = molecular target: T1, Biotinylated SARS-CoV-2 S1 protein …; remark: listed apart in the source
[5] = molecular target: T1, Biotinylated SARS-CoV-2 S1 protein …; remark: listed apart in the source
[6] = molecular target: T1, Biotinylated SARS-CoV-2 S1 protein …; remark: listed apart in the source

Binder | Kd [1] | Kd [2] | Kd [3] | Kd [4] | Kd [5] | Kd [6]
Ab 28 scFv-Fc (scFv, V domains shown) VH: QVTLKESGPGLVNPSETLSLTCTVSGASISNSFWSWIRQSPGKGLEWIGYTSYSGNSIYNPSLKSRLTMSIDTSKNQLSLNLRSLTAADTAVYYCARREWIKGHFDYWGQGTLVTVSS VL: NFMLTQPHSVSESPGKTVTISCTGSGGSIASNYVQWYQQRPGSAPTTVIYEDNQRPSGVPDRFSGSIDSSSNSASLTISGLKTEDEADYYCQSYDSSNPVVFGGGTKLTVL | < 0.001 nM | < 0.001 nM |  |  |  | 
Ab 12 scFv-Fc (S1-R3-T1-H7) (scFv, V domains shown) VH: EVQLVESGPGVVSPSATLFLTCSVSGGSIRTHSWNWIRQPPGKPLEWIGFIHHSGATNKNPSLKSRVTISSDTSKNEFSLTLTSVTAADTAVYYCARGPGILSYWSRGTLVTVSS VL: not shown |  | < 0.001 nM | < 0.001 nM | < 0.001 nM | < 0.001 nM | < 0.001 nM
Ab_17 (scFv, V domains shown) VH: QVQLVQSGGGVVQPGRSLRLSCAASGFTFDDYAMHWVRQVPGKGLEWVSGIDWNSGVIGYADSVKGRFTISRDNVKNSLYLQMNSLRTEDSALYYCAKDIGPGGSGSYYAFDIWGQGTTVTVSS VL: QSALTQPASVSGSPGQSITISCTGTSSDVGGSKYVSWYQQHPGKAPKVMIYDVTKRPSGVPDRFSGSKSGNTASLTISGLQAEDEADYYCAAWDDSLNGVVFGGGTKLTVL | 0.716 nM | 0.716 nM |  |  |  | 
Ab 23 scFv-Fc (scFv, V domains shown) VH: EVQLVQSGAEVKKPGSSVKVSCRSSGGTFSTYGITWVRQAPGQGLEWMGRIIPSLGIPNYAQKFQGRVTITADTSVSTAWMELSSLESDDTAIYYCARENIDLATNDFWGQGTLVTVSS VL: QSALTQPPSASGSPGQSVTISCTGTSRDIGAYGYVSWYQQVPGKAPKLIIYEVRNRPSGVSSRFSGSKSGNTASLTISGLQAEDEADYYCSSYTSSSTLDVVFGGGTKLTVL | 0.338 nM | 0.338 nM |  |  |  | 

From US20230374114A1 (published 2023)
